Data on one molecule can be found in article PMC3135480 (Molecular Biology of the Cell, 2011).

This assay addresses T1, HA-tagged PXL-1 full-length (residues 1-413) (C. elegans, UniProt Q09476 1-413).
T1 sequence (looked up): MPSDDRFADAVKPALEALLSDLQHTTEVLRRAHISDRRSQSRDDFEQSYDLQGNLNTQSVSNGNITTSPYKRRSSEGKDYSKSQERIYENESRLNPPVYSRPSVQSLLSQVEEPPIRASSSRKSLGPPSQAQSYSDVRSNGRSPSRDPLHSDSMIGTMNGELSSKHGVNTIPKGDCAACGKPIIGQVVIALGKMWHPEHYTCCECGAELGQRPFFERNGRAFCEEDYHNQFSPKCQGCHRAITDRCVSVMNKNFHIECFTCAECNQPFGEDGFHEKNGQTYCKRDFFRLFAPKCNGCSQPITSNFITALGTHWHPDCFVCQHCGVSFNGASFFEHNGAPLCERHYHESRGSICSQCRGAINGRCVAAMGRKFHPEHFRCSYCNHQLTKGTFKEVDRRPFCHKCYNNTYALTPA
Nature of the assay: pull-down.

B1: MBP fusion of UNC-95 full-length (natural protein, C. elegans, UniProt Q9NEZ5 1-350, looked up)
chain: MTISPQPSHQQFESYQWTTESRSSQQRHGTGTPSQDGRLSAIPDPVERHVARWRSESRNSNKDKVFRNDEEFSQQDEIVNGTLTALKNDVEQTTEIIRRKQEQMRMERRQFQTEMEVNGRISIDPTDDWLAARLKAVSSDDMNQQLVKLKQDQRQNAVTDTLAALVYDVNATTEVLRRGQRGRDGEDGNKKKKEEIEYTLRLTPAPEEQIPQRPKIPEDDNMETDDYSRQYGVQMSEETDSLRRRRARSTTPRRTLHISGSPPPPAAAVCAYCSEEIDGAILTALAPNSERAQKFHTYHFMCTYCQKALNMHGTYREHDLKPYCHDCFYKLYNGLQYAPDDHQASIEKLI
On to B1, for which the binding result is “binds”.
